{"source": "patent US20230035798A1", "about": "(CAPELLA BIOSCIENCE, published 2023)", "key": {"[1]": {"target": "T1, human LIGHT (TNFSF14), full length, membrane-bound (214E allele) (human, UniProt O43557 1-240)", "T1 construct": "also called membrane LIGHT; human membrane LIGHT", "experiment": "competition with biotin-HVEM:Fc, HEK293FF LIGHT cells, flow cytometry", "procedure": "The ability of the 7 chimeric mAbs to block biotin-HVEM:Fc and biotin-LTβR:Fc fusion proteins to cell surface expressed LIGHT using a flow cytometric based assay is shown in FIGS. 1A and 1B respectively. In these experiments, graded amounts of each antibody were added to the HEK293FF cells transiently transfected with LIGHT with a 50% saturating amount of the receptor fusion protein. As shown, each of the antibodies blocked either receptor fusion protein from binding LIGHT, in contrast to the irrelevant antibody control which had no effect on either Fc-receptor fusion protein binding. In each experiment, all antibodies blocked receptor binding in a dose dependent manner enabling analysis by non-linear regression to determine the IC50 dose as shown in Table 11A."}, "[2]": {"target": "T1, human LIGHT (TNFSF14), full length, …", "experiment": "membrane LIGHT on cells, as for Table 9"}, "[3]": {"target": "T1, human LIGHT (TNFSF14), full length, …", "experiment": "flow cytometry, EL4-LIGHT cells", "procedure": "The EC50 of the 7 mAbs were calculated from binding to EL4-LIGHT cells (Table 7) which represents a more accurate comparison of the EC50's than utilising transiently transfected LIGHT cells. […] Non-linear regression analysis was performed to determine the functional binding affinity measurement or EC50 for each mAb. A range of functional affinities was observed."}, "[4]": {"target": "T1, human LIGHT (TNFSF14), full length, …", "experiment": "soluble LIGHT 74-240 KD over membrane LIGHT KD"}, "[5]": {"target": "T1, human LIGHT (TNFSF14), full length, …", "experiment": "DcR3-His (1 nM) competition, EL4-LIGHT, flow cytometry; 33.3 nM", "procedure": "(§1) EL4-LIGHT cells (0.25×10⁶) were preincubated with anti-membrane LIGHT mAbs (0-300 nM) for 15 min at 4° C. followed by incubation with DcR3-His tagged (1 nM, Creative BioMart; ref: TNFRSF6B-552H, lot: 962512) for 30 min at 4° C. The samples were then incubated with mouse anti-histag antibody (diluted 1:500, Biolegend, cat. no. 652502) for 30 minutes at 4° C., followed by incubation with anti-mouse APC (dil 1:500, BDBiosciences, cat. no. 550826) for 30 minutes at 4° C. The tubes were washed three times after each of the detection antibody stages and flow cytometry analysis was performed. Specific mean fluorescence intensity (MFI) obtained from the binding of DcR3-His to LIGHT on EL4 cells were used to determine the levels of competition binding.\n(§2) In humans, LIGHT is neutralized by DcR3, a unique soluble member of the TNFR superfamily, which tightly binds LIGHT (both soluble and membrane forms) and inhibits its interactions with HVEM and LTβR. A major binding determinant for DcR3 neutralization is the region T170-E178 on LIGHT (Liu et al. Structure 2014: 9; 1252-1262). […] In contrast the anti-LIGHT mAb F19, (from EP2292663) which binds both soluble LIGHT and membrane LIGHT equally well completely displaces DcR3 from binding to membrane LIGHT highlighting a surprising an important functional difference between the anti-membrane LIGHT mAbs of this invention and other neutralizing anti-LIGHT mAbs that have been raised against or screened against soluble LIGHT."}, "[6]": {"target": "T1, human LIGHT (TNFSF14), full length, …", "experiment": "flow cytometry, mAb binding to EL4 cells stably expressing human LIGHT [lower panel]"}, "[7]": {"target": "T1, human LIGHT (TNFSF14), full length, …", "experiment": "DcR3-His (1 nM) competition, EL4-LIGHT, flow cytometry; 1.23 nM", "procedure": "as §1, §2"}, "[8]": {"target": "membrane LIGHT without residues 81-84 (EL4-NC-LIGHT cells) (human, UniProt O43557 1-240)", "sequence (O43557 other isoform, or with tags, fused parts or gaps)": "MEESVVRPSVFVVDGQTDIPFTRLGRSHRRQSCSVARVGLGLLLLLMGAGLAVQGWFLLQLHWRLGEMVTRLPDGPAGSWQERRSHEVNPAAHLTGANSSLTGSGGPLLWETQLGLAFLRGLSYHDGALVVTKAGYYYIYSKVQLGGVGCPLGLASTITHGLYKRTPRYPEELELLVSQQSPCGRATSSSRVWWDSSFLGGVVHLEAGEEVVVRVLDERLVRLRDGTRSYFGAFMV", "experiment": "cell-based or functional assay"}, "[9]": {"target": "T2, recombinant human soluble LIGHT, amino acids 74-240 (R&D Systems 664-LI-025) (human, UniProt O43557 74-240)", "T2 chain": "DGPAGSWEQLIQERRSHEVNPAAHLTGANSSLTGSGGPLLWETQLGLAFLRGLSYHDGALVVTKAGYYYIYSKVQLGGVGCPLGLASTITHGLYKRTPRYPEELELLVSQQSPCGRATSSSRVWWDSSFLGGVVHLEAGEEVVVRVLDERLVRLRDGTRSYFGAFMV", "experiment": "cell-based or functional assay"}, "[10]": {"target": "T2, recombinant human soluble LIGHT, amino …", "experiment": "SPR (BIAcore), as for Table 9", "procedure": "Real-time binding interactions between captured antibody (chimeric anti-membrane LIGHT monoclonal antibody) captured on a biosensor matrix via goat anti-human Fe IgG and recombinant soluble LIGHT were measured by surface plasmon resonance (SPR) using the BIAcore system (GE Healthcare) according to manufacturer's instructions and standard procedures. Briefly, soluble LIGHT was diluted in HBS running buffer (GE Healthcare) and aliquots were injected through the immobilized protein matrices at a flow rate of […]. BIAevaluation software was used to calculate association rate (ka), dissociation rate (kd) and affinity (KD).\nThe specificity of further anti-membrane LIGHT mAbs to soluble LIGHT was determined by using the same BIAcore analysis discussed above which was used to generate the data in Table 9. In brief, mAbs 3B04, 3D12, 3A07, 3C10 and 2B11 were compared to various prior art antibodies, (F19 and F23 IgG4 mAbs from EP2292663 and 1C02, 13H04 and 31A10 mAbs from WO2015/107331)."}, "[11]": {"target": "T1, human LIGHT (TNFSF14), full length, …", "experiment": "DcR3-His (1 nM) competition, EL4-LIGHT, flow cytometry; 3.7 nM", "procedure": "as §1, §2"}}}
{"binder": "3D12 (antibody, human IgG4, V domains shown, chimeric: mouse variable domains on human IgG4 HC (S-to-P and L-to-E at 248) and human CL; also called Parental 3D12; 3D12 chimeric) VH: QVQLQQPGAELVRPGASVTLSCKASDYTFTDSEIHWVKQTPVHGLEWIGEIDPETGGTAYNQKFKGKATLTADKSSSTAYMELRSLTSEDSAVYYCSRETDYFFDYWGQGTTLTVSS VL: DIQMTQSPASLSASVGETVTITCGASENIYGALNWYQRKQGKSPQLLIYGATNLADGMSSRFSGSGSGRQYSLKISSLHPDDVATYYCQNVLSTPWTFGGGTKLEIKR", "values": [{"measurement": "IC50", "setting": "[1]", "value": 1, "unit": "nM"}, {"measurement": "Kd", "setting": "[2]", "value": 0.19, "unit": "nM"}, {"measurement": "EC50", "setting": "[3]", "value": 0.2, "unit": "nM"}, {"measurement": "Membrane:soluble LIGHT affinity ratio", "setting": "[4]", "value": 18.9}, {"measurement": "DcR3-His binding, % of irrelevant mAb", "setting": "[5]", "value": 78.1, "unit": "%"}, {"measurement": "EC50 (read off the curve)", "setting": "[6]", "value": "~0.2", "unit": "nM"}, {"measurement": "DcR3-His binding, % of irrelevant mAb", "setting": "[7]", "value": 72.8, "unit": "%"}, {"measurement": "IC50, nM membrane LIGHT (IL-8 release from HT-29 cells)", "setting": "[8]", "value": 0.1, "unit": "nM"}, {"measurement": "IC50, nM soluble LIGHT (5 ng/ml; IL-8 release from HT-29 cells)", "setting": "[9]", "value": 3.4, "unit": "nM"}, {"measurement": "Kd", "setting": "[10]", "value": 3.6, "unit": "nM"}, {"measurement": "DcR3-His binding, % of irrelevant mAb", "setting": "[11]", "value": 68.6, "unit": "%"}]}
